Experimental data as given in PMC6037785, “Microtubule minus-end aster organization is driven by processive HSET-tubulin clusters” (Nature Communications, 2018).

Assays:
[1] = biological target: unlabeled HSET (full-length HSET with N-terminal 6x His tag, no EGFP) (human) (UniProt Q9BW19); test: fluorescence intensity analysis of moving particles (TIRF); first frame of moving EGFP-HSET (with unlabeled tubulin) or moving Cy5-tubulin (10 nM, with 10 nM unlabeled HSET) on GMPCPP-MTs compared with single molecules adhered to glass; BRB80 + 50 mM KCl with 0.5 mg/mL casein
[2] = biological target: the molecule itself; test: single-molecule stepwise photobleaching (TIRF); single EGFP-tagged molecules adhered to a glass surface; photobleaching traces compared with EGFP-XMCAK, a known dimer; monomers to dimer

Row | Molecule | brightness of moving Cy5-tubulin particles (with HSET) over single Cy5-tubulin molecules [1] [fold] | stoichiometry N [2]
1 | Cy5-tubulin (bovine brain tubulin labeled with NHS-Cy5, 100% labeled) (from UniProt Q6B856 1-445) (complex) | 11.8 | 
2 | EGFP-HSETΔMotor (domain or fragment, human, UniProt Q9BW19 1-304, looked up, HSET/KIFC1, Homo sapiens kinesin-14, amino acids 1-304 (tail and stalk, motor domain deleted); also called pET15b-HTa-EGFP-HSETΔMotor; source: E. coli BL21DE3, purified (Ni-NTA, size exclusion chromatography); not shown: His6, N-terminal, kept; EGFP, N-terminal, kept) MDPQRSPLLEVKGNIELKRPLIKAPSQLPLSGSRLKRRPDQMEDGLEPEKKRTRGLGATTKITTSHPRVPSLTTVPQTQGQTTAQKVSKKTGPRCSTAIATGLKNQKPVPAVPVQKSGTSGVPPMAGGKKPSKRPAWDLKGQLCDLNAELKRCRERTQTLDQENQQLQDQLRDAQQQVKALGTERTTLEGHLAKVQAQAEQGQQELKNLRACVLELEERLSTQEGLVQELQKKQVELQEERRGLMSQLEEKERRLQTSEAALSSSQAEVASLRQETVAQAALLTEREERLHGLEMERRRLHNQL |  | 2
3 | EGFP-HSETΔTail (domain or fragment, human, UniProt Q9BW19 139-673, looked up, HSET/KIFC1, Homo sapiens kinesin-14, amino acids 139-673 (stalk and motor, N-terminal tail deleted); also called pFASTBAC-HTa-EGFP-HSETΔTail; tailless HSET; source: Sf9 cells (baculovirus), purified (Ni-NTA, size exclusion chromatography); not shown: His6, N-terminal, kept; EGFP, N-terminal, kept) LKGQLCDLNAELKRCRERTQTLDQENQQLQDQLRDAQQQVKALGTERTTLEGHLAKVQAQAEQGQQELKNLRACVLELEERLSTQEGLVQELQKKQVELQEERRGLMSQLEEKERRLQTSEAALSSSQAEVASLRQETVAQAALLTEREERLHGLEMERRRLHNQLQELKGNIRVFCRVRPVLPGEPTPPPGLLLFPSGPGGPSDPPTRLSLSRSDERRGTLSGAPAPPTRHDFSFDRVFPPGSGQDEVFEEIAMLVQSALDGYPVCIFAYGQTGSGKTFTMEGGPGGDPQLEGLIPRALRHLFSVAQELSGQGWTYSFVASYVEIYNETVRDLLATGTRKGQGGECEIRRAGPGSEELTVTNARYVPVSCEKEVDALLHLARQNRAVARTAQNERSSRSHSVFQLQISGEHSSRGLQCGAPLSLVDLAGSERLDPGLALGPGERERLRETQAINSSLSTLGLVIMALSNKESHVPYRNSKLTYLLQNSLGGSAKMLMFVNISPLEENVSESLNSLRFASKVNQCVIGTAQANRK |  | 2
4 | EGFP-HSET (full-length HSET/KIFC1, human kinesin-14, with N-terminal 6x His tag and EGFP) (natural protein, UniProt Q9BW19 1-673, looked up, HSET/KIFC1, Homo sapiens kinesin-14, amino acids 1-673; No tag cleavage is described; also called full-length EGFP-HSET; pFASTBAC-HTa-EGFP-HSET; source: Sf9 cells (baculovirus), purified (Ni-NTA, size exclusion chromatography); not shown: His6, N-terminal, kept; EGFP, N-terminal, kept) MDPQRSPLLEVKGNIELKRPLIKAPSQLPLSGSRLKRRPDQMEDGLEPEKKRTRGLGATTKITTSHPRVPSLTTVPQTQGQTTAQKVSKKTGPRCSTAIATGLKNQKPVPAVPVQKSGTSGVPPMAGGKKPSKRPAWDLKGQLCDLNAELKRCRERTQTLDQENQQLQDQLRDAQQQVKALGTERTTLEGHLAKVQAQAEQGQQELKNLRACVLELEERLSTQEGLVQELQKKQVELQEERRGLMSQLEEKERRLQTSEAALSSSQAEVASLRQETVAQAALLTEREERLHGLEMERRRLHNQLQELKGNIRVFCRVRPVLPGEPTPPPGLLLFPSGPGGPSDPPTRLSLSRSDERRGTLSGAPAPPTRHDFSFDRVFPPGSGQDEVFEEIAMLVQSALDGYPVCIFAYGQTGSGKTFTMEGGPGGDPQLEGLIPRALRHLFSVAQELSGQGWTYSFVASYVEIYNETVRDLLATGTRKGQGGECEIRRAGPGSEELTVTNARYVPVSCEKEVDALLHLARQNRAVARTAQNERSSRSHSVFQLQISGEHSSRGLQCGAPLSLVDLAGSERLDPGLALGPGERERLRETQAINSSLSTLGLVIMALSNKESHVPYRNSKLTYLLQNSLGGSAKMLMFVNISPLEENVSESLNSLRFASKVNQCVIGTAQANRK |  | 2
5 | EGFP-HSET-DoubleTail (other, human, HSET/KIFC1, Homo sapiens kinesin-14, amino acids 1-307 (tail and stalk); flexible amino acid linker; HSET/KIFC1, Homo sapiens kinesin-14, amino acids 1-137 (second copy of the N-terminal tail in place of the motor domain); also called pET15b-HTa-EGFP-HSETDoubleTail; source: E. coli BL21DE3, purified (Ni-NTA, size exclusion chromatography); not shown: His6, N-terminal, kept; EGFP, N-terminal, kept) MDPQRSPLLEVKGNIELKRPLIKAPSQLPLSGSRLKRRPDQMEDGLEPEKKRTRGLGATTKITTSHPRVPSLTTVPQTQGQTTAQKVSKKTGPRCSTAIATGLKNQKPVPAVPVQKSGTSGVPPMAGGKKPSKRPAWDLKGQLCDLNAELKRCRERTQTLDQENQQLQDQLRDAQQQVKALGTERTTLEGHLAKVQAQAEQGQQELKNLRACVLELEERLSTQEGLVQELQKKQVELQEERRGLMSQLEEKERRLQTSEAALSSSQAEVASLRQETVAQAALLTEREERLHGLEMERRRLHNQLQELGGSGGSMDPQRSPLLEVKGNIELKRPLIKAPSQLPLSGSRLKRRPDQMEDGLEPEKKRTRGLGATTKITTSHPRVPSLTTVPQTQGQTTAQKVSKKTGPRCSTAIATGLKNQKPVPAVPVQKSGTSGVPPMAGGKKPSKRPAW |  | 2
